Assay results: patent US11994512B2, “Single-cell genomic methods to generate ex vivo cell systems that recapitulate in vivo biology with improved fidelity” (Massachusetts Institute of Technology, priority 2018, dated 2024)

Tested on: intracellular proteome of ENR+CD and ENR organoids
Experiment: LC-MS/MS TMT proteomics of ENR+CD versus ENR organoids
Format: cell-based, C57BL/6 mice
Settings: for Average logFC: ENR+CD versus ENR organoids, sample pairs in aggregate (n=4, 2 technical replicates from two biological donors); for M1-1 Log2 Median Normalized / M1-2 Log2 Median Normalized / M2-1 Log2 Median Normalized / M2-2 Log2 Median Normalized: protein abundance ratio ENR+CD versus ENR organoids, LC-MS/MS TMT proteomics; for M1-1 Log2 Median Normalized: sample pair M1-1; for M1-2 Log2 Median Normalized: sample pair M1-2; for M2-1 Log2 Median Normalized: sample pair M2-1; for M2-2 Log2 Median Normalized: sample pair M2-2; for change: up = enriched in ENR+CD, down = enriched in ENR, FDR<0.05 and log fold change cut-off

Row | Molecule | Average logFC | M1-1 Log2 Median Normalized | M1-2 Log2 Median Normalized | M2-1 Log2 Median Normalized | M2-2 Log2 Median Normalized | change
1 | Q8VCI0 (protein, UniProt Q8VCI0 1-550, looked up, full-length) MCHRSPGRSLRPPSPLLLLLPLLLQPPWAAGAASQSDPTGVHCATAYWSPESKKVEIKTVLDKNGDAYGYYNDSIKTTGWGILEIRAGYGSQVLSNEIIMFLAGYLEGYLTALHMYDHFTNLYPQLIKNPSIVKKVQDFMEKQEMWTRQNIKAQKDDPFWRHTGYVVTQLDGLYLGAQKRASEEKIKPMTMFQIQFLNAVGDLLDLIPSLSPTKSSSMMKFKIWEMGHCSALIKVLPGFENIYFAHSSWYTYAAMLRIYKHWDFNIKDKYTLSKRLSFSSYPGFLESLDDFYILSSGLILLQTTNSVYNKTLLKQVVPKTLLAWQRVRVANMMAEGGKEWAQIFSKHNSGTYNNQYMVLDLKKVTINRSLDKGTLYIVEQIPTYVEYSDQTNVLRKGYWASYNIPFHKTIYNWSGYPLLVHKLGLDYSYDLAPRAKIFRRDQGNVTDMASMKYIMRYNNYKEDPYSKGDPCSTICCREDLNGASPSPGGCYDTKVADIFLASQYKAYAISGPTVQDGLPPFNWNRFNETLHRGMPEVFDFNFVTMKPILS | −1.188 | −1.187 | −1.193 | −1.4105 | −0.754 | down
2 | Q8VCT4 (protein, UniProt Q8VCT4 1-565, looked up, full-length) MGLYPLIWLSLAACTAWGYPSSPPVVNTVKGKVLGKYVNLEGFTQPVAVFLGVPFAKPPLGSLRFAPPQPAEPWSFVKNTTSYPPMCSQDAVGGQVLSELFTNRKENIPLQFSEDCLYLNIYTPADLTKNSRLPVMVWIHGGGLVVGGASTYDGLALSAHENVVVVTIQYRLGIWGFFSTGDEHSRGNWGHLDQVAALRWVQDNIANFGGNPGSVTIFGESAGGFSVSVLVLSPLAKNLFHRAISESGVSLTAALITTDVKPIAGLVATLSGCKTTTSAVMVHCLRQKTEDELLETSLKLNLFKLDLLGNPKESYPFLPTVIDGVVLPKAPEEILAEKSFSTVPYIVGINKQEFGWIIPTLMGYPLAEGKLDQKTANSLLWKSYPTLKISENMIPVVAEKYLGGTDDLTKKKDLFQDLMADVVFGVPSVIVSRSHRDAGASTYMYEFEYRPSFVSAMRPKAVIGDHGDEIFSVFGSPFLKDGASEEETNLSKMVMKFWANFARNGNPNGGGLPHWPEYDQKEGYLKIGASTQAAQRLKDKEVSFWAELRAKESAQRPSHREHVEL | −1.924 | −1.923 | −1.965 | −2.3285 | −1.001 | down
3 | Q8VE33 (protein, UniProt Q8VE33 1-370, looked up, full-length) MATPNNLTPTNCSWWPISALESDAAKPVETPDAPEASSPAHWPKESLVLYHWTQSFSSQKRLQVRLVIAEKGLACEERDVSLPQSEHKEPWFMRLNLGEEVPVIIHRDNIISDYDQIIDYVERTFTGEHVVALMPEAGSPQHARVLQYRELLDALPMDAYTHGCILHPELTTDSMIPKYATAEIRRHLANATTDLMKLDHEEEPQLSEPYLSKQKKLMAKILEHDDVSYLKKILGELAMVLDQIEAELEKRKLENEGQTCELWLCGCAFTLADVLLGATLHRLKFLGLSKKYWEDGSRPNLQSFFERVQRRFAFRKVLGDIHTTLLSAVIPNAFRLVKRKPPSFFGASFLMGSLGGMGYFAYWYLKKKYI | 1.453 | 2.102 | 0.932 | 1.1705 | 1.609 | up
4 | Q8VEE1 (protein, UniProt Q8VEE1 1-365, looked up, full-length) MAKVAKDLNPGVQKMSLGQQQSARGVACLRCKGMCSGFEPHSWRKICKSCKCSQEEHCLSSDLDDDRKIGRLLMDSKYATLTARVKGGDGIRIYKRNRMIMTNPIATGKDPTFDTITYEWAPPGVTQKLGLQYMELIPKERQPVTGTEGALYRRRQLMHQLPIYDQDPSRCRGLVENELKAMEEFVKHYKSEALGVGEVALPGQGGLPKEENKTQEKPEGTETTAPTTNGSLGDPSKEVEYVCELCKGAAPVDSPVVYADRAGYSKQWHPTCFQCIKCSEPLVDLIYFWKDGAPWCGRHYCESVRPRCSGCDEIIFSEDYQRVEDLAWHRKHFICEGCEQLLSGRAYIVTKGQLLCPTCSKSKRS | −1.258 | −1.327 | −1.525 | −1.0345 | −1.145 | down
